Our source for the Kd values is patent US20150368338A1 (Janssen / Centocor, published 2015).

Assay [1] deals with T1, human IFN-ω (human, UniProt P05000 24-195).
T1 construct: Recombinant, HEK293; also called interferon omega
Put plainly: ProteOn SPR, cell supernatant.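 Note: each binding measurement used just a single antigen concentration.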
Description: (§1) To increase the assay throughput, only one concentration of the individual antigen was used.

Assay [2] addresses T2, IFN-αC (human, UniProt P01566 24-189).
T2 construct: Recombinant, HEK293; also called IFN-α10
Description: ProteOn SPR, cell supernatant.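 Note: each binding measurement used just a single antigen concentration.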
Description: as §1

Assay [3] deals with T3, IFN-αF (human, UniProt P01568 24-189).
T3 construct: Recombinant, HEK293; also called IFN-α21
T3 chain: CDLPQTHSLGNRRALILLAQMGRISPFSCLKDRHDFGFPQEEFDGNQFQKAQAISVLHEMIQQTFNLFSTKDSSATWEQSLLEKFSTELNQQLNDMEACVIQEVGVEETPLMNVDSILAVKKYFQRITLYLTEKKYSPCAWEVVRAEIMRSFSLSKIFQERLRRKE
Put plainly: ProteOn SPR, cell supernatant.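 Note: each binding measurement used just a single antigen concentration.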
Description: as §1

Assay [4] deals with T4, IFN-αJ1 (human, UniProt P01567 24-189).
T4 construct: Recombinant, HEK293; also called IFN-α7
Description: ProteOn SPR, cell supernatant.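 Note: each binding measurement used just a single antigen concentration.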
Description: as §1

Assay [5] addresses T5, IFN-α4a (human, UniProt P05014 24-189).
T5 construct: Recombinant, HEK293; also called IFN-αM1
Put plainly: ProteOn SPR, cell supernatant.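 Note: each binding measurement used just a single antigen concentration.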
Description: as §1

In assay [6] the target is T6, IFN-αG (human, UniProt P01569 24-189).
T6 construct: Recombinant, HEK293; also called IFN-α5
Description: ProteOn SPR, cell supernatant.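 Note: each binding measurement used just a single antigen concentration.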
Description: as §1

For assay [7], the target named is T7, IFN-αWA (human, UniProt P05015 24-189).
T7 construct: Recombinant, HEK293; also called IFN-α16
Description: ProteOn SPR, cell supernatant.
Description: as §1

In assay [8] the target is T8, human IFN-ω (human, UniProt P05000 24-195).
T8 construct: also called interferon omega
Description: ProteOn, one antigen concentration.
Description: as §1

Assay [9] has as its target T9, IFN-αC (human, UniProt P01566 24-189).
T9 construct: also called IFN-α10; alpha C
Description: ProteOn, one antigen concentration.
Description: as §1

Assay [10] addresses T10, IFN-αF (human, UniProt P01568 24-189).
T10 construct: also called IFN-α21; alpha F
T10 chain: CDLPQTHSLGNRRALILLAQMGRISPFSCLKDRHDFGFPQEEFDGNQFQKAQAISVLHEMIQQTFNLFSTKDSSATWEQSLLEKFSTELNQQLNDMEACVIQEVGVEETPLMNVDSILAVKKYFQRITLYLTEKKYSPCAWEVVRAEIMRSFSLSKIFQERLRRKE
Put plainly: ProteOn, one antigen concentration.
Description: as §1

Assay [11] has as its target T11, IFN-αJ1 (human, UniProt P01567 24-189).
T11 construct: also called IFN-α7; alpha J1
Put plainly: ProteOn, one antigen concentration.
Description: as §1

The target in assay [12] is T12, IFN-α4a (human, UniProt P05014 24-189).
T12 construct: also called IFN-αM1
Put plainly: ProteOn, one antigen concentration.
Description: as §1

Assay [13] deals with T13, IFN-αG (human, UniProt P01569 24-189).
T13 construct: also called IFN-α5; alpha G
Description: ProteOn, one antigen concentration.
Description: as §1

Assay [14] concerns the target T14, IFN-αWA (human, UniProt P05015 24-189).
T14 construct: also called IFN-α16; alpha WA
Description: ProteOn, one antigen concentration.
Description: as §1

Broadly, the Kd is the constant that tells how readily two partners part at equilibrium. High values mean weaker binding, low ones tighter binding.

B1: IFWM3383 (antibody, IgG1, V domains shown)
VH: EVQLVQSGAEVKKPGESLKISCKGSGYSFTSYWIGWVRQMPGKGLEWMGIIDPSDSDTRYSPSFQGQVTISADKSISTAYLQWSSLKASDTAMYYCARHPGLAWAPDFDYWGQGTLVTVSS
VL: DIQMTQSPSSLSASVGDRVTITCRASQSISKFLNWYQQKPGKAPKLLIYFASSLQSGVPSRFSGSGSGTDFTLTISSLQPEDFATYYCQQSNTLPFTFGQGTKVEIK
notes: mAb; IgG1/kappa said of the parent and of selected mAbs; also called IFWB3118
In the case of B1, the Kd came to 0.028 nM in [1]; 0.069 nM in [2]; 0.06 nM in assay [3]; 0.086 nM in assay [4]; 0.143 nM in [5]; 0.084 nM in assay [6]. The Kd in assay [7] came to 0.064 nM.

B2: IFWM3384 (antibody, IgG1, V domains shown)
VH: EVQLVQSGAEVKKPGESLKISCKGSGYSFTSYWIGWVRQMPGKGLEWMGIIDPSDSDTRYSPSFQGQVTISADKSISTAYLQWSSLKASDTAMYYCARHPGLAWAPDFDYWGQGTLVTVSS
VL: DIQMTQSPSSLSASVGDRVTITCRASQSITNFLNWYQQKPGKAPKLLIYFASSLQSGVPSRFSGSGSGTDFTLTISSLQPEDFATYYCQQSLDFPLTFGQGTKVEIK
notes: mAb; IgG1/kappa said of the parent and of selected mAbs; also called IFWB3119
On to B2, for which the Kd is 0.026 nM in [1]; 0.029 nM in assay [2]; 0.033 nM in assay [3]; 0.068 nM in assay [4]; 0.077 nM in assay [5]; 0.022 nM in assay [6]. Besides, binding in [7] was characterised by a dissociation constant (Kd) of 0.017 nM.

B3: IFWM3382 (antibody, IgG1, V domains shown)
VH: EVQLVQSGAEVKKPGESLKISCKGSGYSFTSYWIGWVRQMPGKGLEWMGIIDPSDSDTRYSPSFQGQVTISADKSISTAYLQWSSLKASDTAMYYCARHPGLAWAPDFDYWGQGTLVTVSS
VL: DIQMTQSPSSLSASVGDRVTITCRASQSIGSALNWYQQKPGKAPKLLIYFASSLQSGVPSRFSGSGSGTDFTLTISSLQPEDFATYYCQQSYDFPLTFGQGTKVEIK
notes: mAb; IgG1/kappa said of the parent and of selected mAbs; also called IFWB3117
Regarding B3, the dissociation constant Kd in [1] is 0.03 nM; in assay [2], 0.024 nM; in assay [3], 0.02 nM; in assay [4], 0.037 nM; in assay [5], 0.075 nM; in assay [6], 0.03 nM. The dissociation constant Kd in [7] is 0.032 nM.

B4: IFWM3335 (antibody, V domains shown)
VH: EVQLVQSGAEVKKPGESLKISCKGSGYSFTSYWIGWVRQMPGKGLEWMGIIDPSDSDTRYSPSFQGQVTISADKSISTAYLQWSSLKASDTAMYYCARHPGLNWAPDFDYWGQGTLVTVSS
VL: DIQMTQSPSSLSASVGDRVTITCRASQSINYLNWYQQKPGKAPKLLIYGASSLQSGVPSRFSGSGSGTDFTLTISSLQPEDFATYYCQQSHDWPITFGQGTKVEIK
notes: VH IFWH591, VL IFWL1084; converted mAb; also called IFWB3070
Take B4: the dissociation constant Kd in [8] was determined as 0.042 nM; in [9], 0.049 nM; in assay [10], 0.061 nM; in assay [11], 0.245 nM; in assay [12], 0.336 nM; in assay [13], 0.077 nM. Besides, in assay [14], the Kd was determined as 0.137 nM.

B5: IFWM3380 (antibody, IgG1, V domains shown)
VH: EVQLVQSGAEVKKPGESLKISCKGSGYSFTSYWIGWVRQMPGKGLEWMGIIDPSDSDTRYSPSFQGQVTISADKSISTAYLQWSSLKASDTAMYYCARHPGLAWAPDFDYWGQGTLVTVSS
VL: DIQMTQSPSSLSASVGDRVTITCRASQSINRFLNWYQQKPGKAPKLLIYAASSLQSGVPSRFSGSGSGTDFTLTISSLQPEDFATYYCQQAIDLPFTFGQGTKVEIK
notes: mAb; IgG1/kappa said of the parent and of selected mAbs; also called IFWB3115
As to B5, the dissociation constant Kd in assay [1] is 0.025 nM; in assay [2] it was 0.046 nM; in [3], 0.032 nM; in assay [4], 0.076 nM; in assay [5], 0.088 nM; in assay [6], 0.07 nM. The molecule also had a Kd in assay [7] of 0.059 nM.

B6: IFWM3401 (antibody, IgG1, V domains shown)
VH: EVQLVQSGAEVKKPGESLKISCKGSGYSFTSYWIGWVRQMPGKGLEWMGIIDPSDSDTRYSPSFQGQVTISADKSISTAYLQWSSLKASDTAMYYCARHPGLAWAPDFDYWGQGTLVTVSS
VL: DIQMTQSPSSLSASVGDRVTITCRASQSITNHLNWYQQKPGKAPKLLIYFASSLQSGVPSRFSGSGSGTDFTLTISSLQPEDFATYYCQQAHNFPLTFGQGTKVEIK
notes: mAb; IgG1/kappa said of the parent and of selected mAbs; also called IFWB3136
Consider B6, for which the Kd in assay [1] came to 0.062 nM; in assay [3] it was 0.028 nM; in assay [4], 0.078 nM; in assay [5] it was 0.195 nM; in [6] it was 0.067 nM; in assay [7], 0.076 nM.
